B1: SSVYCKQTNKKKRKERKRDTGMKGDIIGTGVNDLAPLRGPIKASTMVAVAQDMAGTGADFLFL (peptide)
chain: SSVYCKQTNKKKRKERKRDTGMKGDIIGTGVNDLAPLRGPIKASTMVAVAQDMAGTGADFLFL

How the values were obtained:
U2 OS细胞 = experiment: Cytotoxicity test (CCK8) on U2 OS cells; format: cell-based; details: 0.1-100 μg/ml peptide, 72 h; versus medium without peptide; Fig. 5
[1] = In vivo metabolism and distribution in mouse by fluorescence imaging; set-up: species or system 小鼠
[2] = female mouse, tail vein, 400 ul of 1 mg/ml, Fig. 7

Molecule | Toxicity to U2 OS cells (cell viability, CCK8) (U2 OS细胞) | Distribution of peptide fluorescence after 1 h [1, 2] | Distribution of peptide fluorescence after 3.5 h [1, 2] | Route of metabolism ([1]; female mouse, tail vein, concluded from fluorescence imaging) | Peptide residue in liver, spleen, lung and kidney (frozen sections, confocal) ([1]; mouse, after 3.5 h of imaging, Fig. 8)
SSVLTKWYLVCWSLGESISNERRKNFHLVGHWGCLRKLTFVVE [7号多肽] | 没有毒性作用 | – | – | – | –
B1 | 没有毒性作用 | 逐渐富集到小鼠肝、肾和肠 | 只留存于肝脏和肠腔 | 主要经过肝脏代谢 | 各个脏器均有少量的多肽残留
